Source: patent US20200377573

B1: Human matriptase (protein)
chain: VVGGTDADEGEWPWQVSLHALGQGHICGASLISPNWLVSAAHCYIDDRGFRYSDPTQWTAFLGLHDQSQRSAPGVQERRLKRIISHPFFNDFTFDYDIALLELEKPAEYSSMVRPICLPDASHVFPAGKAIWVTGWGHTQYGGTGALILQKGEIRVINQTTCENLLPQQITPRMMCVGFLSGGVDSCQGDSGGPLSSVEADGRIFQAGVVSWGDGCAQRNKPGVYTRLPLFRDWIKENTGV
B2: Human HTRA2 (protein)
chain: AVPSPPPASPRSQYNFIADVVEKTAPAVVYIEILDRHPFLGREVPISNGSGFVVAADGLIVTNAHVVADRRRVRVRLLSGDTYEAVVTAVDPVADIATLRIQTKEPLPTLPLGRSADVRQGEFVVAMGSPFALQNTITSGIVSSAQRPARDLGLPQTNVEYIQTDAAIDFGNSGGPLVNLDGEVIGVNTMKVTAGISFAIPSDRLREFLHRGEKKNSSSGISGSQRRYIGVMMLTLSPSILAELQLREPSFPDVQHGVLIHKVILGSPAHRAGLRPGDVILAIGEQMVQNAEDVYEAVRTQSQLAVQIRRGRETLTLYVTPEVTE
B3: Human plasmin (protein)
chain: KVYLSECKTGNGKNYRGTMSKTKNGITCQKWSSTSPHRPRFSPATHPSEGLEENYCRNPDNDPQGPWCYTTDPEKRYDYCDILECEEECMHCSGENYDGKISKTMSGLECQAWDSQSPHAHGYIPSKFPNKNLKKNYCRNPDRELRPWCFTTDPNKRWELCDIPRCTTPPPSSGPTYQCLKGTGENYRGNVAVTVSGHTCQHWSAQTPHTHNRTPENFPCKNLDENYCRNPDGKRAPWCHTTNSQVRWEYCKIPSCDSSPVSTEQLAPTAPPELTPVVQDCYHGDGQSYRGTSSTTTTGKKCQSWSSMTPHRHQKTPENYPNAGLTMNYCRNPDADKGPWCFTTDPSVRWEYCNLKKCSGTEASVVAPPPVVLLPDVETPSEEDCMFGNGKGYRGKRATTVTGTPCQDWAAQEPHRHSIFTPETNPRAGLEKNYCRNPDGDVGGPWCYTTNPRKLYDYCDVPQCAAPSFDCGKPQVEPKKCPGRVVGGCVAHPHSWPWQVSLRTRFGMHFCGGTLISPEWVLTAAHCLEKSPRPSSYKVILGAHQEVNLEPHVQEIEVSRLFLEPTRKDIALLKLSSPAVITDKVIPACLPSPNYVVADRTECFITGWGETQGTFGAGLLKEAQLPVIENKVCNRYEFLNGRVQSTELCAGHLAGGTDSCQGDSGGPLVCFEKDKYILQGVTSWGLGCARPNKPGVYVRVSRFVTWIEGVMRNN
B4: Human tPA (protein)
chain: SYQVICRDEKTQMIYQQHQSWLRPVLRSNRVEYCWCNSGRAQCHSVPVKSCSEPRCFNGGTCQQALYFSDFVCQCPEGFAGKCCEIDTRATCYEDQGISYRGTWSTAESGAECTNWNSSALAQKPYSGRRPDAIRLGLGNHNYCRNPDRDSKPWCYVFKAGKYSSEFCSTPACSEGNSDCYFGNGSAYRGTHSLTESGASCLPWNSMILIGKVYTAQNPSAQALGLGKHNYCRNPDGDAKPWCHVLKNRRLTWEYCDVPSCSTCGLRQYSQPQFRIKGGLFADIASHPWQAAIFAKHRRSPGERFLCGGILISSCWILSAAHCFQERFPPHHLTVILGRTYRVVPGEEEQKFEVEKYIVHKEFDDDTYDNDIALLQLKSDSSRCAQESSVVRTVCLPPADLQLPDWTECELSGYGKHEALSPFYSERLKEAHVRLYPSSRCTSQHLLNRTVTDNMLCAGDTRSGGPQANLHDACQGDSGGPLVCLNDGRMTLVGIISWGLGCGQKDVPGVYTKVTNYLDWIRDNMRP
B5: Human chymase (protein)
chain: IIGGTECKPHSRPYMAYLEIVTSNGPSKFCGGFLIRRNFVLTAAHCAGRSITVTLGAHNITEEEDTWQKLEVIKQFRHPKYNTSTLHHDIMLLKLKEKASLTLAVGTLPFPSQFNFVPPGRMCRVAGWGRTGVLKPGSDTLQEVKLRLMDPQACSHFRDFDHNLQLCVGNPRKTKSAFKGDSGGPLLCAGVAQGIVSYGRSDAKPPAVFTRISHYRPWINQILQAN

Biological target: HTRA1-inhibiting peptides (Example 3-2 and 3-3, members not named)

Protein	protease activity (decomposition of a peptide substrate)
B1	did not suppress the protease activity of any of the proteases at a final inhibitor concentration of 1 micro M
B2	did not suppress the protease activity of any of the proteases at a final inhibitor concentration of 1 micro M
B3	did not suppress the protease activity of any of the proteases at a final inhibitor concentration of 1 micro M
B4	did not suppress the protease activity of any of the proteases at a final inhibitor concentration of 1 micro M
B5	did not suppress the protease activity of any of the proteases at a final inhibitor concentration of 1 micro M
